Assay results taken from article PMC3594189, “Cellular Catabolism of the Iron-Regulatory Peptide Hormone Hepcidin” (PLoS ONE, 2013).
No end group written: not given here.

Columns and labels:
Fpn-GFP expressing cells = molecular target: T1, Fpn-GFP expressing cells (Mus musculus, UniProt Q9JHI9); assay: Confocal microscopy co-localization of TR-Hep with Fpn-GFP; format: cell-based
T1 construct: expressed in transfected cells; host or cells: ECR293 (ECR-Fpn) cells, ponasterone-inducible
T1 sequence (Q9JHI9 1-570): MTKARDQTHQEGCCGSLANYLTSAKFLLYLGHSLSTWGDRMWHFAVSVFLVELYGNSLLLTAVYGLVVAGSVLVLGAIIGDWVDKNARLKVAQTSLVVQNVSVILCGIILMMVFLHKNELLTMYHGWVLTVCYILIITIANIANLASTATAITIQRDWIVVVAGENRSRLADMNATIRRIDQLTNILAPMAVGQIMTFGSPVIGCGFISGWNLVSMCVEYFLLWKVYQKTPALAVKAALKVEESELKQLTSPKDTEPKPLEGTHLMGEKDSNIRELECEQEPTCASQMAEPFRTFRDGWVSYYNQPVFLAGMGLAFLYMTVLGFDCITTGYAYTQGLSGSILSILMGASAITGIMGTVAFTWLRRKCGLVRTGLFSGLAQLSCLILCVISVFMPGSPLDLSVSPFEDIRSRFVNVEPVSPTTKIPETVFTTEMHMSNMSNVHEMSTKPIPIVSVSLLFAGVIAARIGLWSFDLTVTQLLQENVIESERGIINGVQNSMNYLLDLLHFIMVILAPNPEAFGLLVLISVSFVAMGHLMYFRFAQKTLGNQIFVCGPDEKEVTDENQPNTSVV
Description: ECR-Fpn cells were plated in a 12-well plate on 12 mm poly-D-lysine coated round coverslips (Becton Dickinson, Franklin Lakes, NJ) in the presence of 20 µM ferric ammonium citrate (FAC) with or without 10 µM ponasterone. FAC is added to the medium to prevent cellular iron depletion caused by prolonged Fpn-GFP overexpression. After 24 h, ponasterone was washed off, and cells were treated with 1 µg/ml TR-Hep at 37°C protected from light. After 1 hour, cells were washed with PBS two times and the coverslip was placed on a slide, sealed with clear nail polish and immediately analyzed. Images were scanned at the UCLA CNSI Advanced Light Microscopy Facility and the BRI Cell Imaging Facility on a Leica TCS-SP MP Confocal and Multiphoton Inverted Microscope (Heidelberg, Germany) equipped with an argon laser (488 nm blue excitation: JDS Uniphase), a 561 nm (green) diode laser (DPSS: Melles Griot), and a two photon laser setup consisting of a Spectra-Physics Millenia×532 nm green diode pump laser and a Tsunami Ti-Sapphire picosecond pulsed infrared laser tuned at 768 nm for UV excitation. Images were acquired using LCS Lite software (Leica Confocal Software, Leica Microsystems, Manheim, Germany).

[1] = molecular target: T2, ECR293 cells expressing Fpn-GFP (Mus musculus, UniProt Q9JHI9); format: cell-based; conditions: for effect of lysosomal inhibitor on degradation of both hepcidin and ferroportin: chloroquine 100 µM or bafilomycin 100 nM for 20 h after 4 h TR-Hep loading, flow cytometry
T2 construct: expressed in transfected cells; host or cells: ECR293 (ECR-Fpn) cells, ponasterone-inducible
T2 sequence (Q9JHI9 1-570): T1 sequence (Q9JHI9 1-570)
Description: ECR-Fpn cells were plated on poly-D-lysine-coated plates in the presence of 20 µM FAC, with or without 10 µM ponasterone. After 24 h, ponasterone was washed off, and cells were loaded with 1 µg/ml TR-Hep for 4 h. After 4 h, cells were washed with PBS, fresh media was added and cells were treated with or without lysosomal inhibitors chloroquine (100 µM) and bafilomycin (100 nM). Twenty hours after the addition of inhibitors, cells were trypsinized and resuspended at 1×10^6 cells/ml, and the intensity of red and green fluorescence was analyzed by flow cytometry at UCLA Jonsson Comprehensive Cancer Center and Center for AIDS Research Flow Cytometry Core Facility (supported by NIH awards CA-16 042 and AI-28 697, the UCLA AIDS institute, and the UCLA School of Medicine). Flow cytometry was performed on FACSVantage SE sorting flow cytometer with digital electronics (Becton Dickinson, San Jose, CA) and analyzed with FACSDiva software (Becton Dickinson). Cells not induced with ponasterone were used to establish a gate to exclude background fluorescence. Loss of cellular Fpn-GFP was quantified as % of green fluorescence in induced cells not treated with hepcidin. Degradation of cellular TR-Hep was measured as % of red fluorescence in induced cells treated with TR-Hep for 4 h.

[2] = molecular target: T2, ECR293 cells expressing Fpn-GFP; format: cell-based
Description: ECR-Fpn cells were plated on poly-D-lysine coated plates in the presence of 20 µM FAC, with or without 10 µM ponasterone, and incubated at 37°C. After 24 h, cells were washed with PBS and 1 ml of serum free media was added. The cells were treated with 5×10^5 cpm of ^125I–hepcidin for 2 h (loading period) at 37°C. After 2 h the cells were washed 3 times with DMEM/10% fetal bovine serum to remove unbound ^125I-hepcidin and 1 ml serum-free media with 20 µM FAC was added to all wells. Cells were incubated at 37°C for 5 min, 4, 8 and 24 h after loading. To prevent lysosomal acidification and proteolysis, 100 nM bafilomycin was added to assigned wells for 24 h. The supernatant was collected, its radioactivity quantified by a gamma counter, and an aliquot subjected to HPLC analysis. The cells were washed once and centrifuged for 2 min at 12,000xg through a silicone oil layer (Nyosil M25, Nye, Fairhaven, MA). The radioactivity in cell pellets was determined by gamma counting (Beckman, Fullerton, CA).
Aliquots of the supernatants were analyzed by reversed-phase high-performance liquid chromatography (RP-HPLC) on Vydac C18 column (218TP54; Waters). Fractions were eluted over 30 minutes with an acetonitrile gradient (1 fraction per minute) and their radioactivity determined by gamma counting.

[3] = molecular target: T3, Fpn-GFP expressing ECR293 cells (ferroportin) (Mus musculus, UniProt Q9JHI9); assay: Temperature and pH dependent 125I-hepcidin binding/internalization assay; format: cell-based
T3 construct: expressed in transfected cells; host or cells: ECR293 (ECR-Fpn) cells, ponasterone-inducible
T3 sequence (Q9JHI9 1-570): T1 sequence (Q9JHI9 1-570)
Description: ^125I-hepcidin (10^6 cpm, specific activity ∼10^7 cpm/µg) was added to ECR-Fpn cells plated on poly-D-lysine coated plates in the presence of 20 µM FAC, with or without 10 µM ponasterone. Cells were incubated with radiolabeled hepcidin at different temperatures (0, 15, 23 and 37°C) for 1 hour. For pH experiments, growth medium was replaced with media adjusted to pH of 2, 4, 5, 6, 7, 8 and 9 (without additional FAC) and radiolabeled hepcidin was added for 1 h at 37°C. Cells were washed with phosphate-buffered saline (PBS) to remove unbound radioactive hepcidin and centrifuged for 2 minutes at 12,000xg through a silicone oil layer (Nyosil M25; Nye). The radioactivity in cell pellets was determined by gamma counting. The temperature-dependence data are expressed in counts-per-minute (cpm), whereas pH-dependence data were normalized because of the variability in absolute cpm values between experiments and expressed as % of radioactivity at pH 7. The radioactivity of uninduced cells subtracted as background for each point.

[4] = cited from earlier work
Excerpt: This study was the first to examine the fate of hepcidin from its initial binding to ferroportin to its cellular catabolism. We show here that hepcidin is internalized together with ferroportin and that both are degraded in lysosomes. Because of the small size of hepcidin (∼2.7 kD) and its weak binding to plasma proteins, glomerular filtration and proteolysis in proximal tubules is thought to be the major mechanism for hepcidin clearance from blood. Detectable concentrations of hepcidin in urine, indicative of peptide that escaped proteolysis in the proximal tubules, are consiste ...

ferroportin = conditions: naturally occurring urinary forms; cited from earlier work

## TR-Hep: synthetic hepcidin labeled with Texas Red-X succinimidyl ester
Fpn-GFP expressing cells; 1 µg/ml TR-Hep, 1 h, 37°C, induced cells, confocal microscopy
  co-localization of red hepcidin with green ferroportin in vesicles: nearly complete co-localization
Fpn-GFP expressing cells; uninduced cells treated with TR hepcidin, data not shown
  red fluorescence in uninduced cells: no detectable red fluorescence
[1]; 24 h after addition of 1 µg/ml TR-Hep, green fluorescence by flow cytometry
  degradation of Fpn-GFP after TR-Hep: nearly completely degraded

## CO/C1=C\C(C)=C\[C@@H](C)[C@@H](O)[C@@H](C)C/C(C)=C/C=C/[C@H](OC)[C@@H]([C@@H](C)[C@@H](O)[C@H](C)[C@@]2(O)C[C@@H](O)[C@H](C)[C@@H](C(C)C)O2)OC1=O [bafilomycin, reference compound]
[1]
  effect of lysosomal inhibitor on degradation of both hepcidin and ferroportin: completely prevented the degradation
[2]; 100 nM bafilomycin for 24 h after 125I-hepcidin loading, gamma counting of cell pellets
  effect of bafilomycin on cellular radioactivity: increased the retention of radioactivity in cells

## CCN(CC)CCCC(C)Nc1ccnc2cc(Cl)ccc12 (stereo not drawn) [chloroquine]
[1]
  effect of lysosomal inhibitor on degradation of both hepcidin and ferroportin: completely prevented the degradation

## Hepcidin: 25-amino acid peptide hormone, principal regulator of plasma iron concentrations; synthetic hepcidin from Peptides International
[3]; pH 2, 4, 5, 1 h at 37°C, uninduced-cell background subtracted
  specific binding at pH lower than 6: did not bind specifically
[3]; pH 9 among pH 2, 4, 5, 6, 7, 8 and 9, 1 h at 37°C, normalized to pH 7
  binding to ferroportin at pH 9: highest binding
[4]
  binding to plasma proteins: weak binding

## ^125I-hepcidin: synthetic hepcidin with M21Y substitution iodinated with 125I (DTHFPICIFCCGCCHRSKCGYCCKT; disulfide (positions not given here); not fully specified (bridges); ends not checked; also: iodinated with 125I, site not given here; UniProt P81172 60-84, looked up, variant M21Y)
[3]; 1 h at 0, 15, 23 and 37°C, cell-bound radioactivity by gamma counting (cpm), at least three experiments
  binding of 125I-hepcidin to Fpn-GFP expressing cells at temperatures below 37°C: decreased
[2]
  radioactivity in cell pellets after loading: almost complete loss of radioactivity

## hepcidin-20: degradation product of hepcidin-25 detected in urine, truncated at the N-terminus by 5 amino acids (ICIFCCGCCHRSKCGMCCKT; disulfide (positions not given here); ends not checked; also: disulfide bridges, pairing not given here; UniProt P81172 65-84, looked up)
ferroportin
  activity relative to hepcidin-25: much less active than hepcidin-25
